Where no end group is shown, it is not given here.
What was measured:
[1] = target: hPTHR1-H223R (human) (UniProt Q03431); assay: cell-based or functional assay
[2] = target: human parathyroid hormone receptor 1 (hPTHR1) (human) (UniProt Q03431); assay: cell-based or functional assay
[3] = target: T1, human PTHR1-H223R (Homo sapiens, UniProt Q03431, H223R); assay: Inverse agonism on basal cAMP signaling in GHR-10 cells; assay type: cell-based; conditions: GHR-10 cells, from AUC, representative experiment
T1 construct: expressed in transfected cells; host or cells: GHR-10 (HEK-293 stably expressing GloSensor and PTHR1-H223R)
T1 sequence (Q03431 27-593 H223R): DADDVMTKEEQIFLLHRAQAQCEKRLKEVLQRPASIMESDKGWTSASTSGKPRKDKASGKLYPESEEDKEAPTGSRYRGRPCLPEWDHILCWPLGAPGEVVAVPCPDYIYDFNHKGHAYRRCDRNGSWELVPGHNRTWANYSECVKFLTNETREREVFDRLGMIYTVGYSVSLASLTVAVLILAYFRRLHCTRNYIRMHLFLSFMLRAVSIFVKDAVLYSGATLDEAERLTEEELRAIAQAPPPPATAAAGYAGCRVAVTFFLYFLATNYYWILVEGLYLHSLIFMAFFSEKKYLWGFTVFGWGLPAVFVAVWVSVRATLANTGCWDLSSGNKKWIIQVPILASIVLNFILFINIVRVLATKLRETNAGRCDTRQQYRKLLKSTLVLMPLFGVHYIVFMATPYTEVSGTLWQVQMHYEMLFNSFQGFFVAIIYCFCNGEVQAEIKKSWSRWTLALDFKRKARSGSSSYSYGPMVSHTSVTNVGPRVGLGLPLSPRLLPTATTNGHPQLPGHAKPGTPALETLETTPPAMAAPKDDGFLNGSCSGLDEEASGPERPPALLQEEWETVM
Method: cAMP signaling was assessed in the HEK293-derived or SaOS2-derived cell lines stably expressing the luciferase-based GloSensor™ cAMP reporter (Hattersley et al., Paper presented at: Novel Signaling Mechanisms and Bone Cell Biology 2014; Binkowski et al., Methods in molecular biology. 756:263-271). HEK-293 cells were further transfected to stably express the hPTHR1, hPTHR1-H223R, or hPTHR1-T410P. The cells were seeded into 96-well white plates and were assayed 24 to 48 hours post-confluency. Assays were performed at room temperature in CO2-independent culture media (Life Technologies, Corp., Carlsbad, Calif.) containing 0.1% BSA (CIDB). The cells were pre-loaded with luciferin (0.5 mM in CIDB) for 15 minutes, then PTH peptides were added at varying concentrations. cAMP-dependent luminescence was measured at two-minute intervals using a PerkinElmer Envision plate reader. The time at which maximum luminescence (cps) observed with agonist alone, typically at 10-20 minutes after agonist addition, was used to obtain data from wells containing antagonist with or without agonist, to thus generate antagonist ligand dose-response curves. The resulting cps values were then plotted against ligand concentration using GraphPad Prism 7.0 software and a four-parameter logistics curve fitting equation, which yielded parameters of inhibitory potency (pIC50).
These experiments were performed in HEK-293 cells stably transfected to express the GloSensor™ cAMP reporter along with a constitutively active mutant human PTHR1. The HEK-293 cells stably expressing GloSensor™ cAMP reporter along with a constitutively active mutant human PTHR1-H223R are GHR-10 cells. The HEK-293 cells stably expressing GloSensor™ cAMP reporter along with a constitutively active mutant human PTHR1-T410P are GTP-4 cells. The HEK-293 cells stably expressing GloSensor™ cAMP reporter along with a WT-PTHR1 are GP-2.3 cells. GP-2.3 cells were used as control. […] Effects on basal cAMP signaling over time were assessed during periods of direct ligand addition (FIGS. 15A-15F). The measurements were performed by recording GloSensor™ luminescence as counts per second (cps) using a PerkinElmer Envision plate reader. The data are illustrated in FIGS. 15A-15F. Data are from triplicate wells (means±SEM) of a single experiment representative of two others.
Persistence of the antagonist/inverse agonist effects (prolonged action) as follows. Effects of eight peptides on basal and PTH(1-34)-stimulated cAMP signaling by PTHR-H223R were assessed in GHR-10 cells (HEK-293-derived cells stably expressing glosensor cAMP reporter and PTHR1-H223R). Time courses of changes in cAMP levels were recorded in three consecutive phases:
1) after initial addition of a candidate antagonist/inverse agonist (1×10^−6 M-1×10^−9 M) to cells pre-loaded for […] with luciferin (left column);
2) after removal of unbound inverse agonist by extensive wash-out with buffer and replenishment with fresh luciferin-containing buffer (middle column); and
Control wells were treated with vehicle. GloSensor™ luminescence, as counts per second (cps), was recorded using a PerkinElmer Envision plate reader. Data are from duplicate wells (means±SEM) of a single experiment representative of two others. The results are illustrated in Table 7 and in FIGS. 16A-16C, 17A-17C, 18A-18C, 19A-19C, 20A-20C, 21A-21C, 22A-22C, and 23A-23C.
GHR10 cells were treated with vehicle or vehicle containing the indicated peptide for 24 minutes and cAMP-dependent luminescence was recorded at two-minute intervals. The cells were then washed to remove unbound ligand and media containing fresh luciferin was added, and cAMP luminescence was recorded for another 26 minutes. Percentage reduction was calculated from the area-under-the-curve (AUC) values derived from the time course plots using the equation: […]

| Reduction of basal cAMP, % vehicle; After ligand washout; GHR-10 cells [1] [% vehicle] | Reduction of basal cAMP, % vehicle; Ligand @ -6M; GHR-10 cells [1] [% vehicle] | IC50, antagonism of PTH(1-34) (0.3 nM)-induced cAMP response, SGS-72 cells [2] [nM] | pIC50, antagonism of PTH(1-34) (0.3 nM)-induced cAMP response, SGS-72 cells [2] | Reduction of basal cAMP, % vehicle, After ligand washout ([3]; 26 minutes after washout of unbound ligand) [% vehicle] | Reduction of basal cAMP, % vehicle, Ligand @ −6M ([3]; peptide 1×10^−6 M for 24 minutes) [% vehicle] | Substance |
| --- | --- | --- | --- | --- | --- | --- |
| 64 | 66 | 2.57 | 8.59 -log M | – | – | L11, dW12, W23-LA-PTH(5-36)-2003 (peptide) |
| 65 | 66 | 2.08 | 8.68 -log M | – | – | L11, dW12, W23-LA-PTH(7-36)-2001 (peptide) |
| – | – | – | – | −49 | −15 | LA-PTH(5-36)-2012 (IQLMHQRAKWIQDARRRAFLHKLIAEIHTAEI-NH2) [compound 2012] |
| 62 | 63 | 2.75 | 8.56 -log M | – | – | Nle8, L11, dW12, W23-LA-PTH(5-36)-1999 (peptide) |
| 71 | 70 | 2.1 | 8.68 -log M | – | – | Nle8, L11, dW12, W23-LA-PTH(7-36)-1997 (peptide) |
| 40 | 51 | 1.55 | 8.81 -log M | – | – | Nle8, dW12, W23-LA-PTH(7-36)-1992 (peptide) |
| 39 | 50 | 1.23 | 8.91 -log M | – | – | dW12, W23-LA-PTH(7-36)-1990 (peptide) |

— patent US20190119348A1, “PARATHYROID HORMONE RECEPTOR 1 ANTAGONIST AND INVERSE AGONIST POLYPEPTIDES AND METHODS OF THEIR USE” (The General Hospital Corporation, priority 2016, published 2019)
